Experimental findings from US20210380653A1 are described below.

The assay concerns the target DR5 receptor (TRAIL-R2, TNFRSF10B) (human) (UniProt O14763). As to the kind of experiment: cell-based or functional assay.

Sequence of DR5 receptor (TRAIL-R2, TNFRSF10B) (human) (O14763 56-440): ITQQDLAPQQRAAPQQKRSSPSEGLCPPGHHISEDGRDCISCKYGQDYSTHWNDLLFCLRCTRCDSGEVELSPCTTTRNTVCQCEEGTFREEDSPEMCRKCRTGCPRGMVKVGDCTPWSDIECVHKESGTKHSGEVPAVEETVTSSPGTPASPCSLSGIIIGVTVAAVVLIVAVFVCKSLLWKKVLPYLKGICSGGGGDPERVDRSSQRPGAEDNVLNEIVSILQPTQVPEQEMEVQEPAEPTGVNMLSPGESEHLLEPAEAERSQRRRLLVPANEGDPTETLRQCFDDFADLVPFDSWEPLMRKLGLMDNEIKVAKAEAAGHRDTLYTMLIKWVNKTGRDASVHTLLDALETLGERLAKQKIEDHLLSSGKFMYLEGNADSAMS

Turning to “TLY012 (PEGylated miLZ-TRAIL; PEGylated form of recombinant human TRAIL fused to a modified isoleucine zipper at the N-terminus) (ligand)”, the IC50, nM (cell viability / cytotoxicity, COLO-205 cells, CellTiter-Glo) was determined as 0.0155 nM.
